What all share (experiment): SEC
Experiment [1] has as its target aglycosylated Fc5 (E382V/M428I) variant of human IgG1 Fc (human).
The target of experiment [2] is aglycosylated human IgG1 Fc (wild type), E. coli expressed (human).
In experiment [3] the target is glycosylated human Fc (wild type), Bethyl Laboratories (human).

Take “aglycosylated Fc5 (E382V/M428I) variant of human IgG1 Fc (domain or fragment)”: the stoichiometry N (as a rule, a count of units in the complex or per binding partner) in experiment [1] was found to be 2.

In turn, “aglycosylated human IgG1 Fc (wild type), E. coli expressed (domain or fragment)” had a stoichiometry N in experiment [2] of 2.

In experiment [3], “glycosylated human Fc (wild type), Bethyl Laboratories (domain or fragment)” showed a stoichiometry N of 2.
